Measurements: the supplement of paper PMC11780869

What follows are sequences tested on Bacillus subtilis (assay: cleaved RNA product abundance (RNA/gDNA barcode ratio) relative to median wild-type variant (ratio to wild type); higher = more accumulation of the downstream cleavage product). Details: experiment (reporter, strain, medium): exp 8a: truncated aprE reporter, strain BJT201 with 2% xylose (RNase J1 expressed); cleavage site: glnRA (positions -5 to +31 mutated).
Method in brief: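 Sequencing of barcodes from gel-selected, reverse-transcribed cleaved RNA and from genomic DNA, with UMI collapsing, yielded a per-construct RNA:gDNA ratio. Scaled to the median construct with the unmutated site, this ratio is the cleaved product abundance. The barcoded reporters (truncated aprE or tetM mRNAs with mutagenized RNase Y cleavage-site windows) were integrated into the B. subtilis chromosome, and cultures grew in LB at 37°C from OD600 0.0003 to 0.3.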

First: CGACATGTCCCGCTTCTTTCATTAATCCGTTAGCAACTTTTTTGCTATATTCATTTACCTTTTAAGAGGAGGAAT
Second: CGACATGTCCCGCTTCTTTCATTAATCCGTTAGCAACTTTTTTGTTATATACATTTACCTTTTAAGAGGAGGAAT
The “cleaved RNA product abundance” value of the first is lower: 0.521 for the first, 0.748 for the second.

Going from “CGACATGTCCCGCTTCTTTCATTAATCCGTTAGCAACTTTTTTTCTATATACATTTACCTTTTAAGAGGAGGAAT” to “CGACATGTCCCGCTTCTTTCATTAATCCGTTAGCAAGCGTTTTGCTATATACATTTACCTTTTAAGAGGAGGAAT”, the “cleaved RNA product abundance” value rises from 0.658 to 0.684.

Going from “CGACATGTCCCGCTTCTTTCATTAATCCGTTAGCAAGTGATTTGCTATATACATTTACCTTTTAAGAGGAGGAAT” to “CGACATGTCCCGCTTCTTTCATTAATCCGTTAGCAAGTGTTATGCTATATACATTTACCTTTTAAGAGGAGGAAT”, the “cleaved RNA product abundance” value falls from 1.25 to 0.19.

Going from “CGACATGTCCCGCTTCTTTCATTAATCCGTTAGCAAGTGTTTTACTATATACATTTACCTTTTAAGAGGAGGAAT” to “CGACATGTCCCGCTTCTTTCATTAATCCGTTAGCAAGTGTTTTGCTAAATACATTTACCTTTTAAGAGGAGGAAT”, the “cleaved RNA product abundance” value falls from 0.824 to 0.596.

Compared with “CGACATGTCCCGCTTCTTTCATTAATCCGTTAGCAAGTGTTTTGCTATAAACATTTACCTTTTAAGAGGAGGAAT”, “CGACATGTCCCGCTTCTTTCATTAATCCGTTAGCAAGTGTTTTGCTATATAAATTTACCTTTTAAGAGGAGGAAT” is higher in “cleaved RNA product abundance” value: 0.659 for the first, 0.803 for the second.

First: CGACATGTCCCGCTTCTTTCATTAATCCGTTAGCAAGTGTTTTGCTATATACATCTACCTTTTAAGAGGAGGAAT
Second: CGACATGTCCCGCTTCTTTCATTAATCCGTTAGCAAGTGTTTTGCTATATACATTTACCTTTTAAGAGGAGGAAT
The “cleaved RNA product abundance” value of the first is lower: 0.494 for the first, 0.995 for the second.

Going from “CGACATGTCCCGCTTCTTTCATTAATCCGTTAGCAAGTGTTTTGCTATATACATTTACTTTTTAAGAGGAGGAAT” to “CGACATGTCCCGCTTCTTTCATTAATCCGTTAGCAAGTGTTTTGCTATATACATTTAGCTTTTAAGAGGAGGAAT”, the “cleaved RNA product abundance” value rises from 1.39 to 1.43.

Going from “CGACATGTCCCGCTTCTTTCATTAATCCGTTAGCAAGTGTTTTGCTATATCCATTTACCTTTTAAGAGGAGGAAT” to “CGACATGTCCCGCTTCTTTCATTAATCCGTTAGCAAGTGTTTTGCTATATTCATTTACCTTTTAAGAGGAGGAAT”, the “cleaved RNA product abundance” value rises from 0.273 to 0.488.

Compared with “CGACATGTCCCGCTTCTTTCATTAATCCGTTAGCAAGTGTTTTGCTATTTACATTTACCTTTTAAGAGGAGGAAT”, “CGACATGTCCCGCTTCTTTCATTAATCCGTTAGCAAGTGTTTTGCTTTATACATTTACCTTTTAAGAGGAGGAAT” is higher in “cleaved RNA product abundance” value: 0.163 for the first, 0.474 for the second.

Compared with “CGACATGTCCCGCTTCTTTCATTAATCCGTTAGCAAGTGTTTTGTTATATACATTTACCTTTTAAGAGGAGGAAT”, “CGACATGTCCCGCTTCTTTCATTAATCCGTTAGCAAGTGTTTTTCTATATACATTTACCTTTTAAGAGGAGGAAT” is higher in “cleaved RNA product abundance” value: 0.21 for the first, 0.603 for the second.

Going from “CGACATGTCCCGCTTCTTTCATTAATCCGTTAGCAAGTTTTTTGCTATATACATTTACCTTTTAAGAGGAGGAAT” to “CGACATGTCCCGCTTCTTTCATTAATCCGTTAGCAATCGTTTTGCTATATACATTTACCTTTTAAGAGGAGGAAT”, the “cleaved RNA product abundance” value rises from 0.974 to 1.11.

First: CGACATGTCCCGCTTCTTTCATTAATCCGTTAGCAATGGTTTTGCTATATACATTTACCTTTTAAGAGGAGGAAT
Second: CGACATGTCCCGCTTCTTTCATTAATCCGTTAGCAATTATTTTGCTATATACATTTACCTTTTAAGAGGAGGAAT
The “cleaved RNA product abundance” value of the first is lower: 1.08 for the first, 1.14 for the second.

Compared with “CGACATGTCCCGCTTCTTTCATTAATCCGTTAGCAATTGTGTTGCTATATACATTTACCTTTTAAGAGGAGGAAT”, “CGACATGTCCCGCTTCTTTCATTAATCCGTTAGCAATTGTTTAGCTATATACATTTACCTTTTAAGAGGAGGAAT” is lower in “cleaved RNA product abundance” value: 0.947 for the first, 0.468 for the second.

Compared with “CGACATGTCCCGCTTCTTTCATTAATCCGTTAGCAATTGTTTTGATATATACATTTACCTTTTAAGAGGAGGAAT”, “CGACATGTCCCGCTTCTTTCATTAATCCGTTAGCAATTGTTTTGCCATATACATTTACCTTTTAAGAGGAGGAAT” is lower in “cleaved RNA product abundance” value: 0.65 for the first, 0.156 for the second.

Going from “CGACATGTCCCGCTTCTTTCATTAATCCGTTAGCAATTGTTTTGCTAAATACATTTACCTTTTAAGAGGAGGAAT” to “CGACATGTCCCGCTTCTTTCATTAATCCGTTAGCAATTGTTTTGCTATAGACATTTACCTTTTAAGAGGAGGAAT”, the “cleaved RNA product abundance” value rises from 0.342 to 0.345.

Going from “CGACATGTCCCGCTTCTTTCATTAATCCGTTAGCAATTGTTTTGCTATATAAATTTACCTTTTAAGAGGAGGAAT” to “CGACATGTCCCGCTTCTTTCATTAATCCGTTAGCAATTGTTTTGCTATATACAATTACCTTTTAAGAGGAGGAAT”, the “cleaved RNA product abundance” value rises from 1.01 to 1.24.

First: CGACATGTCCCGCTTCTTTCATTAATCCGTTAGCAATTGTTTTGCTATATACATGTACCTTTTAAGAGGAGGAAT
Second: CGACATGTCCCGCTTCTTTCATTAATCCGTTAGCAATTGTTTTGCTATATACATTAACCTTTTAAGAGGAGGAAT
The “cleaved RNA product abundance” value of the first is lower: 0.526 for the first, 1.62 for the second.

Compared with “CGACATGTCCCGCTTCTTTCATTAATCCGTTAGCAATTGTTTTGCTATATACATTCACCTTTTAAGAGGAGGAAT”, “CGACATGTCCCGCTTCTTTCATTAATCCGTTAGCAATTGTTTTGCTATATACATTGACTTTTTAAGAGGAGGAAT” is higher in “cleaved RNA product abundance” value: 0.849 for the first, 1.33 for the second.

First: CGACATGTCCCGCTTCTTTCATTAATCCGTTAGCAATTGTTTTGCTATATACATTTAACTTTTAAGAGGAGGAAT
Second: CGACATGTCCCGCTTCTTTCATTAATCCGTTAGCAATTGTTTTGCTATATACATTTACCTTTTAAGAGGAGGAAT
The “cleaved RNA product abundance” value of the first is lower: 1.06 for the first, 1.24 for the second.

First: CGACATGTCCCGCTTCTTTCATTAATCCGTTAGCAATTGTTTTGCTATATACATTTACGTTTTAAGAGGAGGAAT
Second: CGACATGTCCCGCTTCTTTCATTAATCCGTTAGCAATTGTTTTGCTATATACATTTACTTTTTAAGAGGAGGAAT
The “cleaved RNA product abundance” value of the first is higher: 1.1 for the first, 1.01 for the second.

Going from “CGACATGTCCCGCTTCTTTCATTAATCCGTTAGCAATTGTTTTGCTATATACATTTGCCTTTTAAGAGGAGGAAT” to “CGACATGTCCCGCTTCTTTCATTAATCCGTTAGCAATTGTTTTGCTATATACCTTTACCTTTTAAGAGGAGGAAT”, the “cleaved RNA product abundance” value rises from 0.188 to 0.3.

Going from “CGACATGTCCCGCTTCTTTCATTAATCCGTTAGCAATTGTTTTGCTATATACTTTTACCTTTTAAGAGGAGGAAT” to “CGACATGTCCCGCTTCTTTCATTAATCCGTTAGCAATTGTTTTGCTATATAGATTTACCTTTTAAGAGGAGGAAT”, the “cleaved RNA product abundance” value rises from 0.272 to 1.51.

Going from “CGACATGTCCCGCTTCTTTCATTAATCCGTTAGCAATTGTTTTGCTATATGCATTTACCTTTTAAGAGGAGGAAT” to “CGACATGTCCCGCTTCTTTCATTAATCCGTTAGCAATTGTTTTGCTTTATACATTTACCTTTTAAGAGGAGGAAT”, the “cleaved RNA product abundance” value rises from 0.232 to 0.361.

Compared with “CGACATGTCCCGCTTCTTTCATTAATCCGTTAGCAATTGTTTTGTTATATACATTTACCTTTTAAGAGGAGGAAT”, “CGACATGTCCCGCTTCTTTCATTAATCCGTTAGCAATTTTTTTGCTATATACATTTACCTTTTAAGAGGAGGAAT” is higher in “cleaved RNA product abundance” value: 0.425 for the first, 1.16 for the second.

Going from “CGACATGTCCCGCTTCTTTCATTAATCCGTTAGCACCTCTTTTGCTATATACATTTACCTTTTAAGAGGAGGAAT” to “CGACATGTCCCGCTTCTTTCATTAATCCGTTAGCACCTGTTTTGCAATATACATTTACCTTTTAAGAGGAGGAAT”, the “cleaved RNA product abundance” value rises from 0.235 to 0.351.

First: CGACATGTCCCGCTTCTTTCATTAATCCGTTAGCACCTGTTTTGCTATATACAATTACCTTTTAAGAGGAGGAAT
Second: CGACATGTCCCGCTTCTTTCATTAATCCGTTAGCACCTGTTTTGCTATATACAGTTACCTTTTAAGAGGAGGAAT
The “cleaved RNA product abundance” value of the first is higher: 0.867 for the first, 0.393 for the second.

Compared with “CGACATGTCCCGCTTCTTTCATTAATCCGTTAGCACCTGTTTTGCTATATACATTTACCTTTTAAGAGGAGGAAT”, “CGACATGTCCCGCTTCTTTCATTAATCCGTTAGCACCTGTTTTGCTATATACATTTACTTTTTAAGAGGAGGAAT” is lower in “cleaved RNA product abundance” value: 0.748 for the first, 0.499 for the second.

Going from “CGACATGTCCCGCTTCTTTCATTAATCCGTTAGCACCTGTTTTGCTATATATATTTACCTTTTAAGAGGAGGAAT” to “CGACATGTCCCGCTTCTTTCATTAATCCGTTAGCAGCTGTTTTGCTATATACATTTACCTTTTAAGAGGAGGAAT”, the “cleaved RNA product abundance” value falls from 1.44 to 0.754.

Compared with “CGACATGTCCCGCTTCTTTCATTAATCCGTTAGCAGCTGTTTTTCTATATACATTTACCTTTTAAGAGGAGGAAT”, “CGACATGTCCCGCTTCTTTCATTAATCCGTTAGCATCTATTTTGCTATATACATTTACCTTTTAAGAGGAGGAAT” is higher in “cleaved RNA product abundance” value: 0.778 for the first, 1.53 for the second.

Compared with “CGACATGTCCCGCTTCTTTCATTAATCCGTTAGCATCTCTTTTGCTATATACATTTACCTTTTAAGAGGAGGAAT”, “CGACATGTCCCGCTTCTTTCATTAATCCGTTAGCATCTGATTTGCTATATACATTTACCTTTTAAGAGGAGGAAT” is higher in “cleaved RNA product abundance” value: 0.59 for the first, 1.34 for the second.

“CGACATGTCCCGCTTCTTTCATTAATCCGTTAGCATCTGTTTTCCTATATACATTTACCTTTTAAGAGGAGGAAT” was tested, and the “cleaved RNA product abundance” value was 0.524.
